Patent CN115703835A (BOAOXIN BIOTECHNOLOGY NANJING CO LTD, dated 2023)

Assays:
人CRR9 (表面表达人CRR9的A549细胞) = target: T1, 人CRR9 (表面表达人CRR9的A549细胞) (human, UniProt Q96KA5 1-538); assay: flow cytometry on A549 cells
T1 construct: whole, on cells; CRR9 as expressed by A549 cells; also called CLPTM1L; 顺铂耐药相关蛋白9
T1 sequence (looked up): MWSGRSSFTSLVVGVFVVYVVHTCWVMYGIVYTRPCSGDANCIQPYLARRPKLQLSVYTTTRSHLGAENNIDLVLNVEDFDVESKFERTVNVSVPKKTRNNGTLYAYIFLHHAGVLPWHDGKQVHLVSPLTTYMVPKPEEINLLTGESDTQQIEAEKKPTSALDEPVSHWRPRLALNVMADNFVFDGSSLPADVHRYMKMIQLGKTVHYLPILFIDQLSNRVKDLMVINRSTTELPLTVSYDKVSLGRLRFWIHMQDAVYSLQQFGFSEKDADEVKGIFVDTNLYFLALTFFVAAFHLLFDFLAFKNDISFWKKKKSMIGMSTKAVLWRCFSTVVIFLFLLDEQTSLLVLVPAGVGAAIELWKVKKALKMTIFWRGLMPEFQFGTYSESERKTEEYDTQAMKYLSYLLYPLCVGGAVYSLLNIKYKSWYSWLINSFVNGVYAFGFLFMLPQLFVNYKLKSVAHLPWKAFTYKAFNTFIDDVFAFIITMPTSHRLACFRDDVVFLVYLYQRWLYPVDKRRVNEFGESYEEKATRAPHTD

[1] = target: T2, 重组人CRR9蛋白 (human CRR9-TEV-Fc蛋白) (human, UniProt Q96KA5 32-284, biotin-labelled in the capture ELISA and the blocking ELISA (sites not given)); assay: capture ELISA: antibody captured on GAM(Fc), biotinylated human CRR9-TEV-Fc at 0.2 ug/ml, SA-HRP
T2 construct: range 32-284; Made in-house; The order of parts follows the printed name CRR9-TEV-Fc; also called 人CRR9-TEV-Fc; CRR9-生物素; not shown: TEV site; Fc
T2 sequence (looked up): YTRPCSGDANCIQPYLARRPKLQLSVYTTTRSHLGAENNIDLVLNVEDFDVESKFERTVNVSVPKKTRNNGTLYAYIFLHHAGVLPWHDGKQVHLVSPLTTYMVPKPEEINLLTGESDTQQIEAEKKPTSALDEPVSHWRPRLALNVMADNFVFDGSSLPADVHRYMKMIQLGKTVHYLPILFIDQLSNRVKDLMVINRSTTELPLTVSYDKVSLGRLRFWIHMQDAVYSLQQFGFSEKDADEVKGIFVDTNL

B1: 小鼠抗人CRR9单克隆抗体 A1C3G3B2 (antibody, V domains shown)
VH: QIQLVQSGPELKKPGETVKISCKASGYTFTNYGMSWVRQAPGKGLKWMGWINTNTGEPTYAEEFKGRFAFSLETSASTAYLQINNLKNEDTATYFCSRDYYYGGRGYFDYWGQGTTLTVSS
VL: QIVLTQSPAIMSASPGEKVTMTCSATSIVSYMHWYQQKSGTSPKRWIYDTSKLASGVPARFSGSGSGTSYSLTISSMEAADAATYYCQQWSYNPLTFGSGTKLELK
notes: Mouse monoclonal antibody purified from a hybridoma; also called 抗CRR9单克隆抗体
binding result (人CRR9 (表面表达人CRR9的A549细胞)): binds
binding result [1]: binds
